Experimental data reported in article PMC7790537.

What was measured:
[1] = molecular target: recombinant trimeric HA of A/New Caledonia/20/1999 (H1N1) (influenza A virus A/New Caledonia/20/1999 (H1N1)) (UniProt Q6WG00)
[2] = molecular target: recombinant trimeric HA of A/Victoria/210/2009 (H3N2) (influenza A virus A/Victoria/210/2009 (H3N2))

Fab-deficient (ΔFab) IgA1 polymer (from UniProt P01591 23-159) (complex)
> 500 µg/mL: HI activity, minimum HI concentration, NC20 virus [1] | HI activity, minimum HI concentration, Vic210 virus [2] | NT activity, minimum virus-neutralizing concentration, Vic210 virus [2]

Fab-deficient (ΔFab) IgA2m2 polymer (from UniProt P01591 23-159) (complex)
> 500 µg/mL: HI activity, minimum HI concentration, NC20 virus [1] | HI activity, minimum HI concentration, Vic210 virus [2] | NT activity, minimum virus-neutralizing concentration, Vic210 virus [2]
